Reference: patent US20190276501

Legend:
[1] = target: HB-EncK138^TEV-His, EncD60^TEVK138^TEV-His, and HB-EncV57^TEVK138^TEV-His
[2] = target: T1, HB-EncV57^TEVK138^TEV-His
T1 chain: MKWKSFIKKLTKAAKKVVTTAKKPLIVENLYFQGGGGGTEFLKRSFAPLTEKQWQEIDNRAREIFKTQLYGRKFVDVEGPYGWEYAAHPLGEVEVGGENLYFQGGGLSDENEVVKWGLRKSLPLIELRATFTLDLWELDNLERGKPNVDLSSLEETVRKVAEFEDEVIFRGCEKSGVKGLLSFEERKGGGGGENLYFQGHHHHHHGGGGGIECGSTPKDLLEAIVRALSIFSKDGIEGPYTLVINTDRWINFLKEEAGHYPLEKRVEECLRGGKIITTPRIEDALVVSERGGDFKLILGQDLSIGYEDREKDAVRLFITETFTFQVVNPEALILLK

[3] = target: T2, Ap-EncD60^TEVK138^TEV-His
T2 chain: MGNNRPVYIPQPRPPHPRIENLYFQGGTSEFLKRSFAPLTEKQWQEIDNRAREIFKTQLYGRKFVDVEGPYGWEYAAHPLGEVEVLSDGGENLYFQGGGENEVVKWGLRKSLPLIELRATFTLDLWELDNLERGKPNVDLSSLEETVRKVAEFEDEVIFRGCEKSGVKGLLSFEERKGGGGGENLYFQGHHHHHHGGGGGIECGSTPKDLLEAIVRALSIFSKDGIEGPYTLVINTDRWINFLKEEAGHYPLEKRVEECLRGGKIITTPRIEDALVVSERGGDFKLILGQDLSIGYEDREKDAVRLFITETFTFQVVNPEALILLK

[4] = target: T3, HB-EncD60^TEVK138^TEV-His
T3 chain: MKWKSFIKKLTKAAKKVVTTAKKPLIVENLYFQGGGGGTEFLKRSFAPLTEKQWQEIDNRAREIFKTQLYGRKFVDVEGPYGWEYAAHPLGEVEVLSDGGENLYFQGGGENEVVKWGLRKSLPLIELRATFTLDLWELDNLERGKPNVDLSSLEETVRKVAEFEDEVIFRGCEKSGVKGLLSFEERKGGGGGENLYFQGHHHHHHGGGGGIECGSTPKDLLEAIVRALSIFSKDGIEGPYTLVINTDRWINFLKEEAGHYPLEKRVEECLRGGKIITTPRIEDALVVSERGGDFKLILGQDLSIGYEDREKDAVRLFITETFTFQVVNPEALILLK

[5] = target: T4, HB-EncD60^TEVK138^TEV-His with a GT linker between the TEV site and the N-terminus of Enc
T4 chain: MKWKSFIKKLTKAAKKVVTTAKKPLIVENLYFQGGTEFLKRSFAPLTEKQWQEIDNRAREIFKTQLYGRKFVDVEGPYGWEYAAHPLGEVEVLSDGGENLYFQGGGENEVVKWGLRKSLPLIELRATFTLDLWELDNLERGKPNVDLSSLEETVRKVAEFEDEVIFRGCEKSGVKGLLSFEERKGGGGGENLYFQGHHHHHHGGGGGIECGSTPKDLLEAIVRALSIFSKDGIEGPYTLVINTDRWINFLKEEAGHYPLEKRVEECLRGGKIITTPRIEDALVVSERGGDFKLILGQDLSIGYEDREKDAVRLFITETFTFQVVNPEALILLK

[6] = target: T5, Ap-EncK71^TEVK138^TEV-His
T5 chain: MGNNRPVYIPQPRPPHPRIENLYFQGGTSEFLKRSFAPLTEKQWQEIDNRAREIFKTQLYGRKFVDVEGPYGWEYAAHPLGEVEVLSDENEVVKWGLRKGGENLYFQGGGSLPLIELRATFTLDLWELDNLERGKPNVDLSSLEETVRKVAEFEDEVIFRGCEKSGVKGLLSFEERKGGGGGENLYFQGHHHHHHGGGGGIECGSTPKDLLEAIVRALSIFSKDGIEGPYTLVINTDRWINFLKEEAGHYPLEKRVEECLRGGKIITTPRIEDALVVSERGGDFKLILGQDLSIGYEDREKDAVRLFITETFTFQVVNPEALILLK

[7] = target: T6, HB-EncK138^TEV-His with a GT linker between the TEV site and the N-terminus of Enc
T6 chain: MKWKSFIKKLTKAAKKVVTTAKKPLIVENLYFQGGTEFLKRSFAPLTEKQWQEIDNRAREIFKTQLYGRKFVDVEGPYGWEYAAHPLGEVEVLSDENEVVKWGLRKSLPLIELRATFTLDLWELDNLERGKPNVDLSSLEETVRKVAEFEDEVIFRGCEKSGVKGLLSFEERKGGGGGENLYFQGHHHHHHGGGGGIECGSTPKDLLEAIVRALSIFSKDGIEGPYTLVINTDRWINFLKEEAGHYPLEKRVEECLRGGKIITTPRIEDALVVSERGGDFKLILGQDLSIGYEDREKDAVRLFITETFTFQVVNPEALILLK

[8] = target: T7, HB-EncV57^TEVK138^TEV-His with a GT linker between the TEV site and the N-terminus of Enc
T7 chain: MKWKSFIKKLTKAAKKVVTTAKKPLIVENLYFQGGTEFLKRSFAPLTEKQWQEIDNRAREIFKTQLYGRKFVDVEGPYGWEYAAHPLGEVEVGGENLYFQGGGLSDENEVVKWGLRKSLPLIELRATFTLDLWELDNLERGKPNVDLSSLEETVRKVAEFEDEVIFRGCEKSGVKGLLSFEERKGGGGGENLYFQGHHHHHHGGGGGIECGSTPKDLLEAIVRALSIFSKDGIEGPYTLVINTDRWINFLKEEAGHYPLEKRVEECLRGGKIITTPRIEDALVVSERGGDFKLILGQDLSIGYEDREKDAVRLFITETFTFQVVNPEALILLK

Ap-EncK138^TEV-His = target: T8, Ap-EncK138^TEV-His
T8 chain: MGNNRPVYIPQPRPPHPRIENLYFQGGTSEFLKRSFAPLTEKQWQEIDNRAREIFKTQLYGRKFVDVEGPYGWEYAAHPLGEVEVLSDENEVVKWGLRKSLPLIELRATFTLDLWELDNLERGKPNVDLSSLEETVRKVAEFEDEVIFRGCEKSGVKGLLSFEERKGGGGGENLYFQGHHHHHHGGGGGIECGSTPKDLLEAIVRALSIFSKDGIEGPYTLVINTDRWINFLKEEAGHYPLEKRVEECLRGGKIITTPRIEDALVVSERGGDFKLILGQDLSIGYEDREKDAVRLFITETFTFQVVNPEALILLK

HB-EncK138^TEV-His = target: T9, HB-EncK138^TEV-His
T9 chain: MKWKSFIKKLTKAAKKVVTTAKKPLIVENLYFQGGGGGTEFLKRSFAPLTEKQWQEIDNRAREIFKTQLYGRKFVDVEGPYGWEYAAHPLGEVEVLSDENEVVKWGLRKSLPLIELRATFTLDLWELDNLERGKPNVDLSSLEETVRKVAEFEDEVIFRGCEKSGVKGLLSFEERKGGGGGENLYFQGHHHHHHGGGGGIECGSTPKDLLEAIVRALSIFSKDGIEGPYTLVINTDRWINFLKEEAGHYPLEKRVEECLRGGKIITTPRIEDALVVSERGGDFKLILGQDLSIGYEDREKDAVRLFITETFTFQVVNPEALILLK

B1: TEV protease (protein)
chain: GESLFKGPRDYNPISSTICHLTNESDGHTTSLYGIGFGPFIITNKHLFRRNNGTLLVQSLHGVFKVKNTTTLQQHLIDGRDMIIIRMPKDFPPFPQKLKFREPQREERICLVTTNFQTKSMSSMVSDTSCTFPSSDGIFWKHWIQTKDGQCGSPLVSTRDGFIVGIHSASNFTNTNNYFTSVPKNFMELLTNQEAQQWVSGWRLNADSVLWGGHKVFMSKPEEPFQPVKEATQLMNELVYSQ
For B1, the “relative HB/HB-Enc ratio (densitometry after TEV protease digestion)” value [1] was “a relative HB/HB-Enc ratio of 0.26 to 0.56”, the “release of HBCM2 peptide after TEV protease digestion (densitometry)” value (shortened to “release of HBCM2 peptide … (densitometry)”) [2] was “released fewer peptide per fusion protein” and the “release of HBCM2 peptide after TEV protease digestion (overnight, 4 C; Tris-Tricine gel)” value (“release … (overnight, 4 C; Tris-Tricine gel)” for short) [2] was “All constructs were found to at least partially release HBCM2 peptide”. For the same protein, the “TEV protease digestion, SDS-PAGE and anti-TEV site Western blot (up to 20 h at 30 C)” value (“TEV protease digestion … (up to 20 h at 30 C)” for short) [3] was “not well digested by TEV protease”, the “release of HBCM2 peptide … (densitometry)” value [4] was “released fewer peptide per fusion protein” and the “release … (overnight, 4 C; Tris-Tricine gel)” value [4] was “All constructs were found to at least partially release HBCM2 peptide”. The “release of HB peptide after TEV protease digestion (SDS-PAGE)” value (“release of HB peptide” below) [5] was “did not result in detectable release of HB peptide by SDS-PAGE”, the “TEV protease digestion … (up to 20 h at 30 C)” value [6] was “construct 125 (Ap-Encap(K71, K138)) is digested by TEV protease to near completion” and the “release of HB peptide” value [7] was “did not result in detectable release of HB peptide by SDS-PAGE”. For the same protein, the “release of HB peptide” value [8] was “did not result in detectable release of HB peptide by SDS-PAGE”, the “TEV protease digestion … (up to 20 h at 30 C)” value (Ap-EncK138^TEV-His) was “not well digested by TEV protease” and the “release of HBCM2 peptide … (densitometry)” value (HB-EncK138^TEV-His) was “released fewer peptide per fusion protein”. For the same protein, the “release … (overnight, 4 C; Tris-Tricine gel)” value (HB-EncK138^TEV-His) was “All constructs were found to at least partially release HBCM2 peptide”.
